We go through 1 molecule from patent US12397036B2, “Peptide exchange protein” (Cambridge Enterprise Limited, priority 2018, dated 2025).

The target in test [1] is T1, H-2K^b expressed on EL4 (Mus musculus, UniProt P01901).
T1 construct: surface expressed H-2K^b are relatively more peptide receptive compared to human MHC I molecules; endogenous in cells; host or cells: EL4 (murine tumour cell line)
T1 sequence (P01901 22-369): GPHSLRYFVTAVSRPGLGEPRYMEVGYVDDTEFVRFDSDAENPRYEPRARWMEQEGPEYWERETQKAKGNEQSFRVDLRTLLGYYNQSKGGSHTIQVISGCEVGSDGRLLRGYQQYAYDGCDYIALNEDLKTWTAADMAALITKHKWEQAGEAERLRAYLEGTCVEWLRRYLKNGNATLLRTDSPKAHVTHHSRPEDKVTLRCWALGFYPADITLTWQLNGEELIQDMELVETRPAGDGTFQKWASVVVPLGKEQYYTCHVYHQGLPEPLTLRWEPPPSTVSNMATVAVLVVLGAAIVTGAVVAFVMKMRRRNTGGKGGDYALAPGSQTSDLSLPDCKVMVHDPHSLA
T1 sequence (P01887 21-119 partner): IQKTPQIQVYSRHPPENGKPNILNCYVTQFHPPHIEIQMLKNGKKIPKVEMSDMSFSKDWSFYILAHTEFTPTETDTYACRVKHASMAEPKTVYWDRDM
Nature of the test: […] loading on EL4 cells (SIINFEK*L and 25-D1.16 mAb). The format is cell-based, murine. The following applies: 1 μM TAPBPR, 1 nM peptide 30 min. The protocol:
Histograms are representative of three independent experiments. (19d) Bar graphs show the MFI of 25-D1.16−/+SD from three independent experiments. (19e) OT1 killing of EL4 cells treated −/+1 μM soluble TAPBPR^WT or TAPBPR^TN5, followed by incubation with 1 nM […] peptide. Error bars−/+s.e.m from triplicate wells. Data is representative of three independent experiments. Note: surface expressed H-2K^b are relatively more peptide receptive compared to human MHC I molecules. […] As OT1 T cells are highly efficient cytotoxic cells, killing 80-100% of targets after 1-4 hours, we decreased the concentration of […] used in these experiments to 1 nM in order to differentiate between TAPBPR-mediated and background peptide binding, otherwise we would not observe an additive effect of soluble TAPBPR on target cell killing.

Test [2] concerns the target T2, Her2 (Homo sapiens, UniProt P04626).
T2 construct: HeLaM cells which naturally express Her2; endogenous in cells; host or cells: HeLaM, HeLaM+Her2 (over-expressing), HeLaM-Her2-KO (negative control)
Description: Binding of recombinant TAPBPR proteins to HeLaM, HeLaM+Her2 and HeLaM^Her2KO cells. The following applies: 100 nM recombinant protein.
Description: Histograms show the level of TAPBPR when the two cell lines were incubated with 100 nM protein while bar graphs summarise results using a range of concentrations of protein (0.001-100 nM). […] Each bar represents mean and standard deviation of three independent experiments.
Each bar represents mean and standard deviation of three independent experiments.

Test [3] deals with T3, surface MHC I molecules (Homo sapiens, UniProt P04439, A269V/D140Y/D185E/E176V/E277Q/E87N/F33Y/G231S/I121R/I166T/I218V/L180W/L300P/L318F/N151K/P208A/P217A/Q86R/R138H/R169H/S129P/T345S/V36M).
T3 construct: HLA-A68 (MHC class I) expressed on HeLa; endogenous in cells; host or cells: HeLaM and derivatives (TAPBPR-KO with or without TAPBPR/tapasin constructs, +Her2, Her2-KO, +PDL1, pD-GFP); in some arms HeLaM-HLA-ABC-KO re-expressing HLA-A*68:02
Nature of the test: TAPBPR remaining on cell surface after peptide binding (PeTe4 staining). The format is cell-based. The following applies: 100 nM soluble TAPBPR^WT, then 10 nM peptide 15 min. The text has this:
Subsequently, the amount of TAPBPR remaining on the cell surface was detected by staining with the TAPBPR specific mAb PeTe4.

Test [4] has as its target T4, surface MHC class I molecules (HLA-A*68:02) on HeLaM cells (Homo sapiens, UniProt P04439, A269V/D140Y/D185E/E176V/E277Q/E87N/F33Y/G231S/I121R/I166T/I218V/L180W/L300P/L318F/N151K/P208A/P217A/Q86R/R138H/R169H/S129P/T345S/V36M).
T4 construct: HLA-A68 (MHC class I) expressed on HeLa; endogenous in cells; host or cells: HeLaM and derivatives (TAPBPR-KO with or without TAPBPR/tapasin constructs, +Her2, Her2-KO, +PDL1, pD-GFP); in some arms HeLaM-HLA-ABC-KO re-expressing HLA-A*68:02
Description: Binding of exogenous soluble TAPBPR to cells (PeTe-4 staining). The following applies: 100 nM, 15 min, 37° C. The protocol: (§1) (g) Dose response curves of IFN-γ treated HeLaM and HeLaM-HLA-ABC^KO cells treated −/+100 nM TAPBPR with increasing concentrations of ETVSK*QSNV for 15 min at 37° C. Line graphs show MFI−/+s.e.m from three independent experiments. […] (h) Histograms of the typical fluorescent peptide binding observed using flow cytometry. (i) Bar graphs showing the MFI of fluorescent peptide binding to HeLaM HLA-ABC^KO+A2−/+s.e.m from two independent experiments with duplicates. ***P≤0.001, ****P≤0.0001, n/s not significant, using unpaired two-tailed t-test.
(§2) Following trypsinisation, cells were washed in 1% bovine serum albumin (BSA), dissolved in 1×PBS at 4° C. and then stained for 30 min at 4° C. in 1% BSA containing one of the following antibodies: W6/32, pete4, pasta-1, anti-HLA-A68-reactive mAb, BB7.2 or with an isotype control antibody. After washing the cells to remove excess unbound antibody, the primary antibodies bound to the cells were detected by incubation at 4° C. for 25 min with either goat anti-mouse Alexa-Fluor 647 IgG (Invitrogen Molecular Probes, Thermo Fisher Scientific) or with Alexa-Fluor 647-conjugated streptavidin (Invitrogen Molecular Probes, Thermo Fisher […]

For test [5], the system named is surface MHC class I molecules (HLA-A*68:02) on HeLaM cells. The description is as above. On the set-up: species or system human. The conditions noted are these: cells lacking classical MHC class I expression. On the procedure: as §1, §2
Test [6] deals with T5, HLA-A68 (MHC class I) expressed on HeLa (Homo sapiens, UniProt P04439, A269V/D140Y/D185E/E176V/E277Q/E87N/F33Y/G231S/I121R/I166T/I218V/L180W/L300P/L318F/N151K/P208A/P217A/Q86R/R138H/R169H/S129P/T345S/V36M).
T5 construct: HLA-A68 (MHC class I) expressed on HeLa; endogenous in cells; host or cells: HeLaM and derivatives (TAPBPR-KO with or without TAPBPR/tapasin constructs, +Her2, Her2-KO, +PDL1, pD-GFP); in some arms HeLaM-HLA-ABC-KO re-expressing HLA-A*68:02
Nature of the test: ETV* peptide loading on HeLaM and HeLaM-pD-GFP cells. The format is cell-based. The following applies: 1 nM recombinant protein.

B1: soluble TAPBPR^WT: secreted His-tagged luminal domain of human TAPBPR, lacking transmembrane domain and cytoplasmic tail; SEQ ID NO: 2 (protein)
chain: KPHPAEGQWRAVDVVLDCFLVKDGAHRGALASSEDRARASLVLKQVPVLDDGSLEDFTDFQGGTLAQDDPPIIFEASVDLVQIPQAEALLHADCSGKEVTCEISRYFLQMTETTVKTAAWFMANVQVSGGGPSISLVMKTPRVAKNEVLWHPTLNLPLSPQGTVRTAVEFQVMTQTQSLSFLLGSSASLDCGFSMAPGLDLISVEWRLQHKGRGQLVYSWTAGQGQAVRKGATLEPAQLGMARDASLTLPGLTIQDEGTYICQITTSLYRAQQIIQLNIQASPKVRLSLANEALLPTLICDIAGYYPLDVVVTWTREELGGSPAQVSGASFSSLRQSVAGTYSISSSLTAEPGSAGATYTCQVTHISLEEPLGASTQVVPPERR
modifications: His tag; TAPBPR luminal domain (mature sequence without 21 aa leader sequence)
Regarding B1, the “loading of SIINFEKL onto H-2K^b” value in test [1] is reported as “significantly enhanced the loading of SIINFEKL”. Further, in test [2], the “binding to Her2-deficient HeLaM cells” value is listed as “still capable of binding”. Moreover, the “dissociation of TAPBPR from cells after peptide binding” value in test [3] was “dissociate from cells upon high affinity peptide binding”. Further, the “binding of exogenous TAPBPR to HeLaM cells” value in test [4] is on record as “clearly detectable on the cell surface”. Also, the “binding of exogenous TAPBPR to HeLaM-HLA-ABC^KO cells” value in test [5] is reported as “could no longer bind”. In addition, the “exogenous peptide loading onto antibody-target expressing cells at 1 nM protein” value in test [6] is on record as “no peptide loading”.
